Results as given in the supplement of paper PMC11246515.
± gives the standard deviation of the averaged measurements.

Assay: total protein half-life in vivo (active degradation + dilution); higher = more stable protein
[1] = E. coli NCM3722 delta-clpP delta-lon delta-hslV, growth: N-lim chemostat, doubling time 6 h
[2] = E. coli NCM3722 delta-clpP, growth: N-lim chemostat, doubling time 6 h
[3] = E. coli NCM3722 delta-hslV, growth: N-lim chemostat, doubling time 6 h
[4] = E. coli NCM3722 delta-lon, growth: N-lim chemostat, doubling time 6 h
[5] = E. coli NCM3722 delta-smpB, growth: N-lim chemostat, doubling time 6 h
[6] = wild type E. coli NCM3722, growth: C-lim chemostat, doubling time 3 h
[7] = wild type E. coli NCM3722, growth: C-lim chemostat, doubling time 6 h
[8] = wild type E. coli NCM3722, growth: C-lim chemostat, doubling time 12 h
[9] = wild type E. coli NCM3722, growth: N-lim chemostat, doubling time 6 h
[10] = wild type E. coli NCM3722, growth: N-lim chemostat, doubling time 12 h
[11] = wild type E. coli NCM3722, growth: P-lim chemostat, doubling time 6 h
[12] = wild type E. coli NCM3722, growth: P-lim chemostat, doubling time 12 h

| Sequence | total protein half-life in vivo [1] [h] | total protein half-life in vivo [2] [h] | total protein half-life in vivo [3] [h] | total protein half-life in vivo [4] [h] | total protein half-life in vivo [5] [h] | total protein half-life in vivo [6] [h] | total protein half-life in vivo [7] [h] | total protein half-life in vivo [8] [h] | total protein half-life in vivo [9] [h] | total protein half-life in vivo [10] [h] | total protein half-life in vivo [11] [h] | total protein half-life in vivo [12] [h] |
| --- | --- | --- | --- | --- | --- | --- | --- | --- | --- | --- | --- | --- |
| MLNSILVILCLIAVSAFFSMSEISLAASRKIKLKLLADEGNINAQRVLNMQENPGMFFTVVQIGLNAVAILGGIVGDAAFSPAFHSLFSRYMSAELSEQLSFILSFSLVTGMFILFADLTPKRIGMIAPEAVALRIINPMRFCLYVCTPLVWFFNGLANIIFRIFKLPMVRKDDITSDDIYAVVEAGALAGVLRKQEHELIENVFELESRTVPSSMTPRENVIWFDLHEDEQSLKNKVAEHPHSKFLVCNEDIDHIIGYVDSKDLLNRVLANQSLALNSGVQIRNTLIVPDTLTLSEALESFKTAGEDFAVIMNEYALVVGIITLNDVMTTLMGDLVGQGLEEQIVARDENSWLIDGGTPIDDVMRVLDIDEFPQSGNYETIGGFMMFMLRKIPKRTDSVKFAGYKFEVVDIDNYRIDQLLVTRIDSKATALSPKLPDAKDKEESVA [P0AE45] | 5.65 ± 0.36 | 6.93 ± 1.4 | 4.5 ± 0.44 | 4.11 ± 0.21 | 4.53 ± 0.24 | 2.97 ± 0.18 | 5.16 ± 0.21 | 8.79 ± 0.3 | 4.33 ± 0.52 | 7.63 ± 0.57 | 5.01 ± 0.053 | 9 ± 0.094 |
| MLPKAARIPHAMTLHGDTRIDNYYWLRDDTRSQPEVLDYLQQENSYGHRVMASQQALQDRILKEIIDRIPQREVSAPYIKNGYRYRHIYEPGCEYAIYQRQSAFSEEWDEWETLLDANKRAAHSEFYSMGGMAITPDNTIMALAEDFLSRRQYGIRFRNLETGNWYPELLDNVEPSFVWANDSWIFYYVRKHPVTLLPYQVWRHAIGTPASQDKLIYEEKDDTYYVSLHKTTSKHYVVIHLASATTSEVRLLDAEMADAEPFVFLPRRKDHEYSLDHYQHRFYLRSNRHGKNFGLYRTRMRDEQQWEELIPPRENIMLEGFTLFTDWLVVEERQRGLTSLRQINRKTREVIGIAFDDPAYVTWIAYNPEPETARLRYGYSSMTTPDTLFELDMDTGERRVLKQTEVPGFYAANYRSEHLWIVARDGVEVPVSLVYHRKHFRKGHNPLLVYGYGSYGASIDADFSFSRLSLLDRGFVYAIVHVRGGGELGQQWYEDGKFLKKKNTFNDYLDACDALLKLGYGSPSLCYAMGGSAGGMLMGVAINQRPELFHGVIAQVPFVDVVTTMLDESIPLTTGEFEEWGNPQDPQYYEYMKSYSPYDNVTAQAYPHLLVTTGLHDSQVQYWEPAKWVAKLRELKTDDHLLLLCTDMDSGHGGKSGRFKSYEGVAMEYAFLVALAQGTLPATPAD | – | 3.82 ± 0.14 | 4.03 ± 0.38 | 4.8 ± 0.56 | 3.5 ± 0.68 | 3.24 ± 0.09 | 5.11 ± 0.12 | 10.8 ± 3.6 | 4.31 ± 0.24 | 8.85 | 5.9 ± 1.3 | 10.3 ± 0.86 |
| MLPSQSPAIFTVSRLNQTVRLLLEHEMGQVWISGEISNFTQPASGHWYFTLKDDTAQVRCAMFRNSNRRVTFRPQHGQQVLVRANITLYEPRGDYQIIVESMQPAGEGLLQQKYEQLKAKLQAEGLFDQQYKKPLPSPAHCVGVITSKTGAALHDILHVLKRRDPSLPVIIYPAAVQGDDAPGQIVRAIELANQRNECDVLIVGRGGGSLEDLWSFNDERVARAIFTSRIPVVSAVGHETDVTIADFVADLRAPTPSAAAEVVSRNQQELLRQVQSTRQRLEMAMDYYLANRTRRFTQIHHRLQQQHPQLRLARQQTMLERLQKRMSFALENQLKRTGQQQQRLTQRLNQQNPQPKIHRAQTRIQQLEYRLAETLRAQLSATRERFGNAVTHLEAVSPLSTLARGYSVTTATDGNVLKKVKQVKAGEMLTTRLEDGWIESEVKNIQPVKKSRKKVH | 6.078 ± 0.013 | 5.772 ± 0.023 | 6.48 ± 0.87 | 5.98 ± 0.4 | 5.71 ± 0.13 | 3.32 ± 0.21 | 6.11 ± 0.37 | 11.39 ± 0.059 | 5.89 ± 0.5 | 12.33 ± 0.035 | 6.05 ± 0.67 | 13.1 ± 2.8 |
| MLRECDYSQALLEQVNQAISDKTPLVIQGSNSKAFLGRPVTGQTLDVRCHRGIVNYDPTELVITARVGTPLVTIEAALESAGQMLPCEPPHYGEEATWGGMVACGLAGPRRPWSGSVRDFVLGTRIITGAGKHLRFGGEVMKNVAGYDLSRLMVGSYGCLGVLTEISMKVLPRPRASLSLRREISLQEAMSEIAEWQLQPLPISGLCYFDNALWIRLEGGEGSVKAARELLGGEEVAGQFWQQLREQQLPFFSLPGTLWRISLPSDAPMMDLPGEQLIDWGGALRWLKSTAEDNQIHRIARNAGGHATRFSAGDGGFAPLSAPLFRYHQQLKQQLDPCGVFNPGRMYAEL | 4.1 ± 1.8 | – | – | – | – | 1.22 ± 0.36 | 2.52 ± 0.13 | 3.59 ± 0.039 | – | – | – | 3.88 ± 1.7 |
| MLRFSANLSMLFGEYDFLARFEKAAQCGFRGVEFMFPYDYDIEELKHVLASNKLEHTLHNLPAGDWAAGERGIACIPGREEEFRDGVAAAIRYARALGNKKINCLVGKTPAGFSSEQIHATLVENLRYAANMLMKEDILLLIEPINHFDIPGFHLTGTRQALKLIDDVGCCNLKIQYDIYHMQRMEGELTNTMTQWADKIGHLQIADNPHRGEPGTGEINYDYLFKVIENSDYNGWVGCEYKPQTTTEAGLRWMDPYR | 4.29 ± 0.63 | 5.97 | – | 4.98 | 3.59 ± 0.17 | – | – | 10.1 | 3.73 | 6.46 | 5.52 | 7.81 |
| MLRHITFTVFITTSMNTLATGMVPETSVLLVDEKRGEASINIKNTDDHPSLLYTTIVDLPESNKSIRLIPTQPVIRVEAGQVQQVRFLLQATVPLQSEELKRVTFEGIPPKDDKSSRVTVSIRQDLPVLIHPASLPEERETWKFLEWRKNGDQIEISNPSNYVVRMTLQFKTLPSGKTGAINKTYFLPHTSTTTALTNATDTKVEFYPASRYGYRGNKYVTDLK | – | – | – | – | – | – | – | – | – | – | 4.81 | – |
| MLRIAKEALTFDDVLLVPAHSTVLPNTADLSTQLTKTIRLNIPMLSAAMDTVTEARLAIALAQEGGIGFIHKNMSIERQAEEVRRVKKHESGVVTDPQTVLPTTTLREVKELTERNGFAGYPVVTEENELVGIITGRDVRFVTDLNQPVSVYMTPKERLVTVREGEAREVVLAKMHEKRVEKALVVDDEFHLIGMITVKDFQKAERKPNACKDEQGRLRVGAAVGAGAGNEERVDALVAAGVDVLLIDSSHGHSEGVLQRIRETRAKYPDLQIIGGNVATAAGARALAEAGCSAVKVGIGPGSICTTRIVTGVGVPQITAVADAVEALEGTGIPVIADGGIRFSGDIAKAIAAGASAVMVGSMLAGTEESPGEIELYQGRSYKSYRGMGSLGAMSKGSSDRYFQSDNAADKLVPEGIEGRVAYKGRLKEIIHQQMGGLRSCMGLTGCGTIDELRTKAEFVRISGAGIQESHVHDVTITKESPNYRLGS [P0ADG7] | 5.001 ± 0.0064 | 3.78 ± 0.047 | 4.06 ± 0.047 | 4.91 ± 0.38 | 3.95 ± 0.36 | 3.01 ± 0.44 | 5.76 ± 0.073 | 11.2 ± 1.9 | 4.29 ± 0.39 | 6.68 ± 0.18 | 6.02 ± 0.29 | 12.5 ± 0.63 |
